Measured values taken from paper PMC3510509, “Binding of two DNA molecules by type II topoisomerases for decatenation” (Nucleic Acids Research, 2012).

Molecular target: T1, Mycobacterium smegmatis DNA gyrase subunit A (GyrA) (M. smegmatis, UniProt P48354 1-842)
T1 construct: DNA gyrase subunit A, Mycobacterium smegmatis; also called MsGyrA; M. smegmatis GyrA
Experiment: cross-linking; glutaraldehyde; gyrase subunits mixed 1:1 in supercoiling reaction buffer, on ice 30 min, then cross-linked at 37°C for 30 min; products resolved on SDS-PAGE, silver stained
Conditions: both partners purified

- binding result: binds
B1: Mycobacterium smegmatis DNA gyrase subunit B (GyrB) (natural protein, M. smegmatis, UniProt A0QNE0 1-675, looked up)
chain: MAAQKNNAPKEYGADSITILEGLEAVRKRPGMYIGSTGERGLHHLIWEVVDNAVDEAMAGFATRVDVKIHADGSVEVRDDGRGIPVEMHATGMPTIDVVMTQLHAGGKFDGETYAVSGGLHGVGVSVVNALSTRLEATVLRDGYEWFQYYDRSVPGKLKQGGETKETGTTIRFWADPEIFETTDYNFETVARRLQEMAFLNKGLTIELTDERVTAEEVVDDVVKDTAEAPKTADEKAAEATGPSKVKHRVFHYPGGLVDYVKHINRTKTPIQQSIIDFDGKGPGHEVEIAMQWNAGYSESVHTFANTINTHEGGTHEEGFRAALTSVVNRYAKDKKLLKDKDPNLTGDDIREGLAAVISVKVAEPQFEGQTKTKLGNTEVKSFVQKICNEQLQHWFEANPAEAKTVVNKAVSSAQARIAARKARELVRRKSATDIGGLPGKLADCRSTDPSKSELYVVEGDSAGGSAKSGRDSMFQAILPLRGKIINVEKARIDRVLKNTEVQSIITALGTGIHDEFDISKLRYHKIVLMADADVDGQHISTLLLTLLFRFMKPLVENGHIFLAQPPLYKLKWQRSEPEFAYSDRERDGLLEAGRAAGKKINVDDGIQRYKGLGEMDAKELWETTMDPSVRVLRQVTLDDAAAADELFSILMGEDVEARRSFITRNAKDVRFLDV
notes: DNA gyrase subunit B, Mycobacterium smegmatis, wild type; also called MsGyrB; M. smegmatis GyrB
